The Human Domainome abundance scans (Beltran et al. 2025)
± gives the uncertainty stated by the source.

B1: Far upstream element-binding protein 3, residues 75 to 150; numbered along this chain, Q96I24 (parent)
chain: RTVITEEFKVPDKMVGFIIGRGGEQISRIQAESGCKIQIASESSGIPERPCVLTGTPESIEQAKRLLGQIVDRCRN
B2: Zinc finger MYM-type protein 6, residues 427 to 504; numbered along this chain, O95789 (parent)
chain: KLKCQHCNHLFATKPELLFYKGKMFLFCGKNCSDEYKKKNKVVAMCDYCKLQKIIKETVRFSGVDKPFCSEVCKFLSA

Variants of: B1
Assay: abundance fitness (aPCA) (normalised: wild type 0, dead -1); higher = more abundant; growth selection in yeast, the domain comes from the species named
Conditions: Homo sapiens

Row | Variant | abundance fitness
1 | S43L | -0.102 ± 0.035
2 | S33D | -0.648 ± 0.06
3 | S33R | -0.827 ± 0.036
4 | V52S | -0.005 ± 0.036
5 | Q69F | -0.181 ± 0.062
6 | Q69E | 0.025 ± 0.037
7 | Q69A | -0.006 ± 0.032
8 | T2R | 0.014 ± 0.029
9 | T2D | -0.061 ± 0.053
10 | P57W | -0.073 ± 0.04
11 | P57C | -0.143 ± 0.054
12 | Q30D | -0.582 ± 0.059
13 | Q30V | -0.142 ± 0.031
14 | Q30A | -0.058 ± 0.031
15 | L53E | -1.05 ± 0.073
16 | L53C | -0.191 ± 0.062
17 | G34Q | -0.06 ± 0.049
18 | G34C | -0.268 ± 0.054
19 | D72I | -0.225 ± 0.064
20 | D72L | -0.083 ± 0.033
21 | I4K | -0.035 ± 0.049
22 | I4Q | -0.087 ± 0.037
23 | G20A | -0.118 ± 0.029
24 | I26G | -0.533 ± 0.029
25 | I26T | -0.262 ± 0.041

Row | Variant | abundance fitness
26 | I26F | -0.173 ± 0.06
27 | Q38H | -0.059 ± 0.062
28 | Q38I | -0.098 ± 0.075
29 | I18D | -0.142 ± 0.046
30 | A63W | -1.25 ± 0.064
31 | A63P | -0.986 ± 0.062
32 | A63E | -0.831 ± 0.047
33 | E61G | -0.017 ± 0.027
34 | T54I | -0.065 ± 0.12
35 | T54N | -0.1 ± 0.075
36 | K36A | -0.065 ± 0.034
37 | I60S | -0.836 ± 0.055
38 | C51Y | -0.311 ± 0.065
39 | C51F | -0.009 ± 0.061
40 | C51T | -0.108 ± 0.043
41 | C51W | -0.147 ± 0.034
42 | G16L | -0.148 ± 0.032
43 | G16R | -0.037 ± 0.028
44 | G16P | -0.029 ± 0.041
45 | M14G | -0.311 ± 0.026
46 | M14R | -0.423 ± 0.029
47 | M14N | -0.101 ± 0.073
48 | G22I | -0.086 ± 0.078
49 | S41N | 0.022 ± 0.057
50 | D12L | -0.173 ± 0.031

Row | Variant | abundance fitness
51 | D12E | -0.053 ± 0.036
52 | D12A | -0.024 ± 0.03
53 | V3R | -0.085 ± 0.027
54 | I39A | -0.437 ± 0.036
55 | N76K | -0.183 ± 0.079
56 | N76T | -0.057 ± 0.061
57 | K64C | -0.453 ± 0.044
58 | K64M | -0.336 ± 0.042
59 | K64S | -0.416 ± 0.032
60 | K64Y | -0.505 ± 0.062
61 | K64R | -0.095 ± 0.026
62 | V15G | -0.135 ± 0.027
63 | V15C | -0.108 ± 0.038
64 | R21G | -0.064 ± 0.027
65 | T5R | -0.063 ± 0.031
66 | T5H | -0.071 ± 0.074
67 | T5V | -0.09 ± 0.032
68 | G68N | -0.043 ± 0.069
69 | G68H | -0.066 ± 0.071
70 | G68I | -0.092 ± 0.061
71 | G68A | -0.066 ± 0.033
72 | R49D | -0.251 ± 0.056
73 | R49P | -0.182 ± 0.048
74 | E48R | -0.153 ± 0.029
75 | S59M | -0.152 ± 0.044

Row | Variant | abundance fitness
76 | S59L | -0.797 ± 0.047
77 | I19K | -0.057 ± 0.053
78 | I19N | -0.001 ± 0.069
79 | V10D | -0.479 ± 0.05
80 | V10K | -0.794 ± 0.063
81 | V10Q | -0.675 ± 0.047
82 | V10G | -0.634 ± 0.03
83 | L66N | -0.221 ± 0.062
84 | G45R | -0.055 ± 0.026
85 | E42S | -0.037 ± 0.037
86 | F8R | -0.543 ± 0.029
87 | F8Q | -0.34 ± 0.046
88 | F8C | -0.317 ± 0.041
89 | P47I | -0.021 ± 0.051
90 | S44G | -0.021 ± 0.027
91 | S44T | -0.015 ± 0.039
92 | E24D | -0.053 ± 0.049
93 | E24Q | 0.055 ± 0.041
94 | V71E | -0.073 ± 0.034
95 | V71W | -0.175 ± 0.035
96 | V71S | -0.118 ± 0.037
97 | Q25L | -0.138 ± 0.033
98 | E58R | -0.086 ± 0.031
99 | E58M | -0.128 ± 0.051
100 | E7I | -0.048 ± 0.064

Row | Variant | abundance fitness
101 | E6Q | -0.068 ± 0.041
102 | E6L | -0.235 ± 0.03
103 | A40W | -0.1 ± 0.033
104 | A40G | -0.018 ± 0.025
105 | F17E | 0.025 ± 0.037
106 | F17H | -0.026 ± 0.061
107 | T56A | -0.086 ± 0.032
108 | T56Q | -0.127 ± 0.037
109 | E32T | -0.055 ± 0.044
110 | A31D | -0.015 ± 0.046
111 | A31M | -0.07 ± 0.039
112 | A31I | -0.025 ± 0.06
113 | A31H | 0.057 ± 0.051
114 | P11G | -0.254 ± 0.031
115 | R28E | -0.079 ± 0.034
116 | R28Q | -0.02 ± 0.04
117 | R1V | -0.043 ± 0.042
118 | R1K | 0.008 ± 0.055
119 | R1N | 0.063 ± 0.071
120 | R1M | 0.029 ± 0.055
121 | R1W | -0.2 ± 0.037
122 | G55Y | -1.28 ± 0.17
123 | R75C | -0.124 ± 0.055
124 | R75M | 0.009 ± 0.051

Variants of: B2
Assay: as above
Conditions: Homo sapiens

Row | Variant | abundance fitness
125 | D65C | -0.284 ± 0.4
126 | D65A | -0.226 ± 0.12
127 | D65S | -0.188 ± 0.1
128 | D65P | -0.339 ± 0.21
129 | D65V | -0.232 ± 0.1
130 | D65L | -0.105 ± 0.099
131 | D65G | -0.488 ± 0.1
132 | D65E | 0.142 ± 0.11
133 | D65I | -0.666 ± 0.3
134 | D65R | -0.908 ± 0.23
135 | D65N | -0.141 ± 0.34
136 | D65F | -0.598 ± 0.2
137 | D65M | 0.006 ± 0.13
138 | D65T | -0.208 ± 0.36
139 | A78S | -0.11 ± 0.14
140 | A78N | -0.301 ± 0.14
141 | A78G | 0.022 ± 0.18
142 | A78C | -0.897 ± 0.43
143 | A78M | 0.774 ± 0.16
144 | A78D | 0.891 ± 0.22
145 | A78R | -0.142 ± 0.15
146 | A78V | -0.292 ± 0.12

Row | Variant | abundance fitness
147 | A78W | -0.284 ± 0.42
148 | A78E | -0.067 ± 0.31
149 | L76V | -0.581 ± 0.098
150 | L76T | -0.109 ± 0.28
151 | L76P | -0.5 ± 0.35
152 | L76Y | -0.189 ± 0.33
153 | L76Q | 0.603 ± 0.13
154 | L76R | 0.209 ± 0.073
155 | L76G | -0.052 ± 0.073
156 | L76M | 0.759 ± 0.09
157 | L76H | 0.095 ± 0.32
158 | L76W | -0.174 ± 0.11
159 | L76C | 0.183 ± 0.18
160 | S62Y | 0.176 ± 0.15
161 | S77V | -0.857 ± 0.24
162 | S77E | -0.615 ± 0.22
163 | S77A | -0.129 ± 0.097
164 | S77R | -0.394 ± 0.09
165 | S77Q | -0.303 ± 0.24
166 | S77N | -0.434 ± 0.25
167 | S77D | -0.14 ± 0.17
